Test results from paper doi:10.1101/2022.06.13.495963 (bioRxiv, 2022).

Molecular target: B-Myb negative regulatory domain, amino acids 440-600 (NRD^440-600) (human, UniProt P10244-1 440-600)
Assay: ITC

Sequence of B-Myb negative regulatory domain, amino acids 440-600 (NRD^440-600) (P10244 440-600): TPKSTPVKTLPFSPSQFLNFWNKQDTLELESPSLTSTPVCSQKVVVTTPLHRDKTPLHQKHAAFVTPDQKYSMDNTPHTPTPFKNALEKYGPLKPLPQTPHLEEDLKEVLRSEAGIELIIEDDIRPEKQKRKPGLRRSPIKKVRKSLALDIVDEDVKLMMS

B1: B-Myb DNA binding domain (B-Myb^34-183) (domain or fragment)
chain: not shown
Kd: 4.5 µM
